In patent US20100040602A1 (RIBOVAX BIOTECHNOLOGIES, published 2010):

Columns and labels:
[1] = target: T1, CG3 antigen (recombinant interstrain fusion of gB Antigenic Domain 2 from hCMV strains AD169 and Towne) (human cytomegalovirus strain AD169; …); test: ELISA, CG3 antigen (gB AD2), cell culture supernatant
T1 construct: Commercial antigen (Biotest AG, cod. 807035); also called gB (AD2) antigen
T1 chain: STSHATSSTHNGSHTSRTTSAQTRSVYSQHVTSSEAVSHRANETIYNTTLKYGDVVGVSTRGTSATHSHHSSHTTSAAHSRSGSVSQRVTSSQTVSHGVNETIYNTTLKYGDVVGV

[2] = target: T2, gH(Ag)-GST fusion protein (gH amino terminal region, amino acids 16-144, hCMV strain VR1814, fused in frame … (human cytomegalovirus strain VR1814, UniProt P12824 16-144)); test: ELISA, plate-coated gH(Ag)-GST, cell culture supernatant, anti-human IgG-HRP
T2 construct: also called gH antigen; not shown: Glutathione-S-Transferase (GST)
T2 chain: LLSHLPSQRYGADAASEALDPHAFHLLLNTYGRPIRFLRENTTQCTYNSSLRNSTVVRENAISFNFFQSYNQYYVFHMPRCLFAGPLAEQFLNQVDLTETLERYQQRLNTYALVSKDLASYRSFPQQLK

B1: 26A1 antibody (natural human IgG1 secreted by the 26A1 subculture, tested as cell culture supernatant) (antibody, V domains shown)
VH: QVQLQESGPGLVKPSQTLSLICTVSGGSVSSGGDYWTWIRQHPGKGLEWLGYIHSSGNIFYNPSLKSRLTLSMDTSKNQFFLKLTSVTAADTAVYYCARVYHKDFVVVPGAFPFEFWFDPWGQGTLVTVSS
VL: SYVLTQPPSVSVAPGQTARIPCGGNEIGSKSVHWYQQKPGQAPVLVVHDDSDRPSGIPDRFSGSNSGNTATLTISRVEAGDEADYYCQVWDSGSDHHVVFGGGTKLTVLG
notes: It is a human IgG1; also called 26A1 IgG; IgG1 produced by 26A1 culture
- binding result [1]: no binding
- binding result [2]: no binding
